In assay [1] the target is T1, nicotinic acetylcholine receptor (nAChR) (Rattus norvegicus, UniProt P25108+P25110).
T1 construct: rat skeletal muscle nAChR extract; from tissue; host or cells: rat skeletal muscle (extract)
The assay is described as follows: 125I-αBtx-nAChR binding inhibition (affinity test of snake venom protein peaks). The note with it: rat skeletal muscle nAChR extract; αBTX = 100%, BSA = 0%. From the text: The method was based on the affinity test between 12 protein peaks and nicotinic acetylcholine receptor (nAChR).
The Principle of Affinity Test
Because α-bungarotoxin has high affinity with the nicotinic acetylcholine receptor (nAChR), the cobra neurotoxin can compete with α-bungarotoxin for binding with nicotinic acetylcholine receptor, and only these α-bungarotoxin labeled with the radionuclide 125I and bound with the nicotinic acetylcholine receptor will be precipitated and be counted by the Gamma immunocount instrument whilst unbound α-bungarotoxin will be washed out. Therefore, 12 isolated proteins binding inhibition rate of α-bungarotoxin with nicotinic acetylcholine receptor (nAChR) could be used to measure the affinity between the isolated proteins and nicotinic acetylcholine receptor (nAChR), that's each isolated protein's bioactivity, which could be further determined by the γ counting value per second (Bq) measured by immune counter, and it becomes the index of proteins bioactivity.
The way of implementation include the method of binding inhibition rate of 125I radioactive labeling-α-bungarotoxin with nicotinic acetylcholine receptor (%) which reflects the activity of each protein.
The method for identifying cobra neurotoxin with high affinity with nicotinic acetylcholine receptor (nAChR) includes the following steps: […]

Assay [2] has as its system streptozotocin (STZ)-induced rat nephritis proteinuria. The assay is described as follows: Streptozotocin (STZ)-induced nephritis proteinuria in rats. In kind it is in vivo. Particulars: urine, ELISA, streptozotocin (STZ) 55 mg/kg, 20 ug/kg by gavage once a day for 8 weeks.
Assay [3] relates to adriamycin induced rat nephritis proteinuria. The assay is described as follows: Adriamycin induced nephritis proteinuria in rats (unilateral nephrectomy + adriamycin). It is filed as in vivo. The note with it: urine, ELISA, adriamycin 3 + 2 mg/kg, 20 ug/kg by gavage once a day for 8 weeks. The source says:
1. Experimental Animals and Groups
80 male SD rats weighing 160-180 g were randomly divided into 2 groups: 20 in the control group and 60 in the model group. 40 rats in model group, after success in modeling, were randomly divided into cobra neurotoxin polypeptide treatment group and model group.
Each group of the three, namely control group, treatment group and model group were randomly divided into two groups again, with 10 rats in each group to test cobra neurotoxin peptide SEQ ID No. 1 and SEQ ID No. 2, the remaining rats were out of the groups.
Glomerulosclerotic rats were established by unilateral nephrectomy combined with tail vein injection of adriamycin twice every 2 weeks. Model. […] The control group was injected into caudal vein on the 4th and 18th day respectively with normal saline 0.5 ml.
During the 8 weeks of observation, the treatment group was given cobra neurotoxin polypeptide·20 ug/kg by gavage once a day, continuously for 8 weeks; the model group and the control group were perfused with normal saline once a day for 8 weeks.
3. Collection and Detection of Urinary Protein
After the last treatment, the rats were placed in the metabolic cage to collect 10 ml of urine, centrifuged at 3500 r/min for 10 min, the supernatant was extracted into the cryopreservation tube, stored in the refrigerator at −80° C. for standby, and the urinary A1 microglobulin was detected by enzyme-linked immunosorbent assay, β2-microglobulin, microalbumin, transferrin and immunoglobulin G (IgG), operate according to the instructions of ELISA kit.
Anesthetized rats were injected intraperitoneally with 1.5% Pentobarbital Sodium (50 mg/kg). After the corneal reflex disappeared, the abdominal cavity was opened and the abdominal aorta was exposed. The abdominal aorta collected 10 ml of whole blood and placed in a centrifuge tube. After standing for 2 h, centrifuged at 3500 r/min for 10 min. The supernatant was extracted in a cryopreservation tube and stored in a refrigerator at −80° C. for standby. The serum creatinine, urea nitrogen, cholesterol and triglyceride were detected by a full-automatic biochemical analyzer.
For orientation: ELISA stands for enzyme-linked immunosorbent assay.

T1 sequence (P25108 21-457): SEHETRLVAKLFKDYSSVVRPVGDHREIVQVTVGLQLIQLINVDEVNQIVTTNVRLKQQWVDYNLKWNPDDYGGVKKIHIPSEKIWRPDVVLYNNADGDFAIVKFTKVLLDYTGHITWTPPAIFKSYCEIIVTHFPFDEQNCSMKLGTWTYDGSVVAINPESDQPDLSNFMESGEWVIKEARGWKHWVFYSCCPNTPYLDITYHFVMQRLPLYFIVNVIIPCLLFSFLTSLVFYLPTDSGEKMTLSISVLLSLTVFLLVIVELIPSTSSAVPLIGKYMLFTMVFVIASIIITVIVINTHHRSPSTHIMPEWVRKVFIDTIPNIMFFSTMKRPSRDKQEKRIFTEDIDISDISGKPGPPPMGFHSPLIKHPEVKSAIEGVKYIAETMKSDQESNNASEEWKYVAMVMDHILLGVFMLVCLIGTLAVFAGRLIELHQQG
T1 sequence (P25109 24-501 partner): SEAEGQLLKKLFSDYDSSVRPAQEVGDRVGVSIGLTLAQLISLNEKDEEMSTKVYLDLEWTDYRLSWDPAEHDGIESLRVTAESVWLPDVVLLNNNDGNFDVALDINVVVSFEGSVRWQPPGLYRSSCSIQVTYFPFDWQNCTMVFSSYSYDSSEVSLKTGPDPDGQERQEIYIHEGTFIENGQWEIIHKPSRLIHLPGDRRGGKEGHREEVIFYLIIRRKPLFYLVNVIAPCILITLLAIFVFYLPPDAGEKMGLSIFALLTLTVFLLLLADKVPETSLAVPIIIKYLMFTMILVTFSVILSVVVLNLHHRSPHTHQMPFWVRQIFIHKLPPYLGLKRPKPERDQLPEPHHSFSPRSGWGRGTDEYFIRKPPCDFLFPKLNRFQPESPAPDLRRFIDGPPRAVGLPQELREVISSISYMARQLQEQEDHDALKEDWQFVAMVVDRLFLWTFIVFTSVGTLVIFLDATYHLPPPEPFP
T1 sequence (P25110 22-517): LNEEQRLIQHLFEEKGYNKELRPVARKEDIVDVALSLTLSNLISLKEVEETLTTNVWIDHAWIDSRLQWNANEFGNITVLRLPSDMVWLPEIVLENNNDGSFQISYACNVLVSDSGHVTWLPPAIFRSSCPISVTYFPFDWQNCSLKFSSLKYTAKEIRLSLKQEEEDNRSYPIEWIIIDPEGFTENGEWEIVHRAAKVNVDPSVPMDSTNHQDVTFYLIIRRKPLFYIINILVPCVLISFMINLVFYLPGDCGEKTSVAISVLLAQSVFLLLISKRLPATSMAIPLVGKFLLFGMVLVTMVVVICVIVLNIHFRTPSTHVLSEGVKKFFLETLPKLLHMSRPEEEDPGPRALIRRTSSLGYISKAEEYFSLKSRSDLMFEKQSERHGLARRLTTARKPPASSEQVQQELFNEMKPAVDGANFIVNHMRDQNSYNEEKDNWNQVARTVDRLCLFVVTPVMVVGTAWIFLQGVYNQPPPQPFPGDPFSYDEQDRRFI

B1: SEQ ID No. 1 (protein, listed as Naja atra)
chain: LECHNQQSSQTPTTTGCSGGETNCYKKRWRDHRGYRTERGCGCPSVKNGIEINCCTTDRCNN
As to B1, the “125I-αBtx-nAChR binding inhibitory rate” value in assay [1] is given as “about 50%”. In assay [2] (Table 3), the IgG is 0.35 ± 0.11 µg/mL, the TRF was found to be 0.17 ± 0.05 µg/mL, the UALB came out at 1.21 ± 0.14 µg/mL and the a1-MG came out at 1.02 ± 0.21 µg/mL. In assay [2] (Table 3), this molecule yielded a β2-MG of 38.90 ± 11.82 ng/mL. Also, in assay [3] (Table 1), the IgG is 0.34 ± 0.08 µg/mL, the TRF came to 0.17 ± 0.08 µg/mL, the UALB came out at 0.89 ± 0.11 µg/mL and the a1-MG came out at 0.52 ± 0.8 µg/mL. Further, the β2-MG in assay [3] (Table 1) came out at 29.29 ± 6.93 ng/mL.

B2: SEQ ID No. 2 (protein, listed as Naja atra)
chain: MKTLLLTLLVVTIVCLDLGYTLECHNQQSSQTPTTTGCSGGETNCYKKRWRDHRGYRTERGCGCPSVKNGIEINCCTTDRCNN
In assay [2] (Table 4), B2 returned an IgG of 0.31 ± 0.09 µg/mL, a TRF of 0.18 ± 0.06 µg/mL, a UALB of 0.89 ± 0.26 µg/mL and an a1-MG of 0.96 ± 0.19 µg/mL. In assay [3] (Table 2), the IgG was 0.31 ± 0.15 µg/mL, the TRF was determined as 0.11 ± 0.032 µg/mL, the UALB came out at 0.82 ± 0.21 µg/mL and the a1-MG was determined as 0.74 ± 0.14 µg/mL.
